Results on three variants are retold here after IntAct's records for PubMed 17235283.

To fix the notation:
B1: Lymphocyte cytosolic protein 2 (Homo sapiens), Q13094 (parent)
chain: MALRNVPFRSEVLGWDPDSLADYFKKLNYKDCEKAVKKYHIDGARFLNLTENDIQKFPKLRVPILSKLSQEINKNEERRSIFTRKPQVPRFPEETESHEEDNGGWSSFEEDDYESPNDDQDGEDDGDYESPNEEEEAPVEDDADYEPPPSNDEEALQNSILPAKPFPNSNSMYIDRPPSGKTPQQPPVPPQRPMAALPPPPAGRNHSPLPPPQTNHEEPSRSRNHKTAKLPAPSIDRSTKPPLDRSLAPFDREPFTLGKKPPFSDKPSIPAGRSLGEHLPKIQKPPLPPTTERHERSSPLPGKKPPVPKHGWGPDRRENDEDDVHQRPLPQPALLPMSSNTFPSRSTKPSPMNPLPSSHMPGAFSESNSSFPQSASLPPYFSQGPSNRPPIRAEGRNFPLPLPNKPRPPSPAEEENSLNEEWYVSYITRPEAEAALRKINQDGTFLVRDSSKKTTTNPYVLMVLYKDKVYNIQIRYQKESQVYLLGTGLRGKEDFLSVSDIIDYFRKMPLLLIDGKNRGSRYQCTLTHAAGYP

One experiment covers variants of B1. The settings on record: with grb2_human GRB2, P62993.
Chain of grb2_human GRB2, P62993 (P62993 whole entry, looked up): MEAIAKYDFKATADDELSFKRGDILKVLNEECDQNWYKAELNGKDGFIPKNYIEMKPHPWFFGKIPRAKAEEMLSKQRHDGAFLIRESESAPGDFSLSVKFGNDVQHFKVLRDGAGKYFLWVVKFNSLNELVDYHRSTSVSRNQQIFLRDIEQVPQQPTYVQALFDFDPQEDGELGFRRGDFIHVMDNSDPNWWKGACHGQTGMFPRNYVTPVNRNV
For the variant S238R, the “effect of a mutation on the interaction” value is given as “decreasing interaction”.

Another experiment covers variants of B1. The settings on record: with stam1_human STAM.
Consider S238R, for which the “effect of a mutation on the interaction” value was “decreasing interaction”.

In a further experiment the parent is B1. The settings on record: with stam2_human STAM2, O75886.
S238R: the “effect of a mutation on the interaction” value was “decreasing interaction”.

Variants of B1 are the subject of a further experiment. The settings on record: with stam1_human STAM. This is another data set of the same source.
With S234P, the “effect of a mutation on the interaction” value is given as “decreasing interaction”.

In the next experiment the parent is B1. The settings on record: with stam2_human STAM2, O75886. The source holds these as a separate data set.
In the case of S234P, the “effect of a mutation on the interaction” value is listed as “decreasing interaction”.

The variants in a further experiment derive from B1. The settings on record: with grb2_human GRB2, P62993. This is another data set of the same source.
For the variant T239P, the “effect of a mutation on the interaction” value is on record as “disrupting interaction”.

In the next experiment the parent is B1. The settings on record: with stam1_human STAM. The source holds these as a separate data set.
For the variant T239P, the “effect of a mutation on the interaction” value is “disrupting interaction”.

Another experiment covers variants of B1. The settings on record: with stam2_human STAM2, O75886. This is another data set of the same source.
For T239P, the “effect of a mutation on the interaction” value was “disrupting interaction”.
